Data: patent US20260008830A1

Experiments:
Test in all cases: cell-based or functional assay
[1] = target: T1, IFN-gamma receptor on HEK-Dual cells (Human IFN-γ SEAP/Luciferase Reporter Cells, hkd-ifng)
T1 sequence (P15260 whole entry, looked up): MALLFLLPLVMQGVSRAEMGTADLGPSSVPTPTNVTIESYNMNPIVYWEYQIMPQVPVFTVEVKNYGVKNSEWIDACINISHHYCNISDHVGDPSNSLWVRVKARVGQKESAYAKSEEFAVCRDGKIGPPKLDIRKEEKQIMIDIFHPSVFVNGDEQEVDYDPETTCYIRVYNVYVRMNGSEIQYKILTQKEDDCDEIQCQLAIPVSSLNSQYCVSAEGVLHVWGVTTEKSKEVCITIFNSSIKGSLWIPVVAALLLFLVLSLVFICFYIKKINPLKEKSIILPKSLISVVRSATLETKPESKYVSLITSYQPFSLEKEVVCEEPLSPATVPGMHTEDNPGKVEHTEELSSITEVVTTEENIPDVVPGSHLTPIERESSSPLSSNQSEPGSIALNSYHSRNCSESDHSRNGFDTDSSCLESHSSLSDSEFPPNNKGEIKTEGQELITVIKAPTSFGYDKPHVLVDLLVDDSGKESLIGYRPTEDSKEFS
T1 sequence (P38484 whole entry, looked up): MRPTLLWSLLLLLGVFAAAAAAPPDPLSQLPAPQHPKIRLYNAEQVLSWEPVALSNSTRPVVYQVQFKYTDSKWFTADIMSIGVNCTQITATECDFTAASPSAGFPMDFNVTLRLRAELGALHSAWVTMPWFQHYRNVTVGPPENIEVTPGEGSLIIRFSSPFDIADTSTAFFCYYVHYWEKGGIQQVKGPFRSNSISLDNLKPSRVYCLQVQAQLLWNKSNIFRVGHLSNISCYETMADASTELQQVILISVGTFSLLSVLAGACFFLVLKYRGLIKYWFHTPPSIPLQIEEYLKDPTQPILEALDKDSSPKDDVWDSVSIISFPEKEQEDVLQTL

[2] = target: T2, IL-10 receptors R1 and R2 on HEK-Blue IL-10 reporter cells (UniProt Q13651)
T2 sequence (looked up) 1: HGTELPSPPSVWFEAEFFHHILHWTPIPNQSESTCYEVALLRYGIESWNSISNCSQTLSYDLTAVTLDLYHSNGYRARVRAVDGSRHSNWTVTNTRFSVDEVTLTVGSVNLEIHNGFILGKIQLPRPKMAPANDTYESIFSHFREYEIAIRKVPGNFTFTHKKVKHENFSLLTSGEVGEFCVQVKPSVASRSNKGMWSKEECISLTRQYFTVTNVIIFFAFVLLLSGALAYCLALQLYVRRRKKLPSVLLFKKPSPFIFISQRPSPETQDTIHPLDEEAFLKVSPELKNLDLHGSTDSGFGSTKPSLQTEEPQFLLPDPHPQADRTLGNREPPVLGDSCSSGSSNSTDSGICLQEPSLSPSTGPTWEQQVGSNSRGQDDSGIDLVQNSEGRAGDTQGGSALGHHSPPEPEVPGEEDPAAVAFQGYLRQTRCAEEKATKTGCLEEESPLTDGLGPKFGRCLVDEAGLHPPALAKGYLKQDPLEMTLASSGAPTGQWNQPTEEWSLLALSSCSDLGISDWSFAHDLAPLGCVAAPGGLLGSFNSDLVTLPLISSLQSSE
T2 sequence (looked up) 2: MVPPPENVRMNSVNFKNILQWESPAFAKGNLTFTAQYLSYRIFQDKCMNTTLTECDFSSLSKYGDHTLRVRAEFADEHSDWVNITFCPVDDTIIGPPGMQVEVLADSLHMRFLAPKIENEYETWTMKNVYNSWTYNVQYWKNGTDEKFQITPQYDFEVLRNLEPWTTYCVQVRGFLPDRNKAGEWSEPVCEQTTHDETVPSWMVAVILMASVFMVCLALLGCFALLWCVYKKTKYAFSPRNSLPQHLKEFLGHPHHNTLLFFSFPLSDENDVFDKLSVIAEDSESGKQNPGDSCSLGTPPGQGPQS

[3] = target: IL-10 receptors R1 and R2 on HEK-Blue IL-10 reporter cells (UniProt Q13651); remark: listed apart in the source
[4] = target: IL-22 receptors R1 and R2 on HEK-Blue IL-22 reporter cells (UniProt Q8N6P7)
Chain of IL-22 receptors R1 and R2 on HEK-Blue IL-22 reporter cells (Q8N6P7 16-574 limits assumed): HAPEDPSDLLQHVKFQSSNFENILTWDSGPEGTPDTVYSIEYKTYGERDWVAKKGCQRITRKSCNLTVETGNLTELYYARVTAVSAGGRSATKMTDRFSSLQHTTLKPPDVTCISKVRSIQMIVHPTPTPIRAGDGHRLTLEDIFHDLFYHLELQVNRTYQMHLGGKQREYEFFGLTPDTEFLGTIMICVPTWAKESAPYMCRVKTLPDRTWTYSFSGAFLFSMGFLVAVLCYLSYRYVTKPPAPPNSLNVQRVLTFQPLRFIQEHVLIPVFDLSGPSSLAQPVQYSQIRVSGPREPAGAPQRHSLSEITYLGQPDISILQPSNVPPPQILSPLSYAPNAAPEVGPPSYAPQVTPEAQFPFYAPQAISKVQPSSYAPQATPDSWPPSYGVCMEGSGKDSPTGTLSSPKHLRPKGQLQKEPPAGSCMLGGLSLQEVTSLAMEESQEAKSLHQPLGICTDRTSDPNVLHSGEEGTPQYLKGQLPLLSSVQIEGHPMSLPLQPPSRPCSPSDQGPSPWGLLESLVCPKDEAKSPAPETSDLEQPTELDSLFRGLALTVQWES

Chain of IL-10 ORF (WT human IL-10 expressed and secreted by M. pneumoniae) (P22301 other isoform, or with tags, fused parts or gaps limits assumed): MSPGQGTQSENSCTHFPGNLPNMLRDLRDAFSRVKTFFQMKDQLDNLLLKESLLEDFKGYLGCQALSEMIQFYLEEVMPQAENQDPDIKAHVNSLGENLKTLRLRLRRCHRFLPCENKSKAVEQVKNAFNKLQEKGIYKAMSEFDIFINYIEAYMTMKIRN
Chain of IFNg WT (crystallised version of IFNg of PDB 6e3k) (P01579 other isoform, or with tags, fused parts or gaps limits assumed): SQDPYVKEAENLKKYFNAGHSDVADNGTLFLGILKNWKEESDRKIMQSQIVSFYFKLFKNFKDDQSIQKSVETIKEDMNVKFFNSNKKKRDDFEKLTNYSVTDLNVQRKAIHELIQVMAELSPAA

IFNg WT (crystallised version of IFNg of PDB 6e3k) (from UniProt P01579 24-147) (ligand)
EC50 (HEK Dual cells responding to IFNγ) [1]: 0.0866 nM

IL-10 ORF (WT human IL-10 expressed and secreted by M. pneumoniae) (from UniProt P22301 19-178) (ligand)
Apparent Kd (M) average (HEK-Blue IL-10 SEAP reporter, absorbance 630 nm, saturation binding fit) [2]: 1.98e-10 M
Fold change-apparentKD (against IL-10 ORF) [2]: 1 fold

hIL-10r (commercial recombinant human IL-10, #200-10, Peprotech) (from UniProt P22301 19-178) (ligand)
Apparent Kd (M) average (HEK-Blue IL-10 SEAP reporter, absorbance 630 nm, saturation binding fit) [3]: 4.61e-10 M
Fold change-apparentKD (against IL-10 ORF) [3]: 0.43 fold

WT22 (IL-22 WT used as reference for the interface mutants) (from UniProt Q9GZX6 34-179) (ligand)
app KD (HEK-Blue IL-22 reporter) [4]: 0.128 nM
